Results taken from PMC8948881, “Molecular Properties of Human Guanylate Cyclase-Activating Protein 3 (GCAP3) and Its Possible Association with Retinitis Pigmentosa” (International Journal of Molecular Sciences, 2022).

T1: GC1 (GC-E, ROS-GC1, RetGC1) (Homo sapiens, UniProt Q02846)
T1 construct: gene GUCY2D
T1 sequence (Q02846 52-1103): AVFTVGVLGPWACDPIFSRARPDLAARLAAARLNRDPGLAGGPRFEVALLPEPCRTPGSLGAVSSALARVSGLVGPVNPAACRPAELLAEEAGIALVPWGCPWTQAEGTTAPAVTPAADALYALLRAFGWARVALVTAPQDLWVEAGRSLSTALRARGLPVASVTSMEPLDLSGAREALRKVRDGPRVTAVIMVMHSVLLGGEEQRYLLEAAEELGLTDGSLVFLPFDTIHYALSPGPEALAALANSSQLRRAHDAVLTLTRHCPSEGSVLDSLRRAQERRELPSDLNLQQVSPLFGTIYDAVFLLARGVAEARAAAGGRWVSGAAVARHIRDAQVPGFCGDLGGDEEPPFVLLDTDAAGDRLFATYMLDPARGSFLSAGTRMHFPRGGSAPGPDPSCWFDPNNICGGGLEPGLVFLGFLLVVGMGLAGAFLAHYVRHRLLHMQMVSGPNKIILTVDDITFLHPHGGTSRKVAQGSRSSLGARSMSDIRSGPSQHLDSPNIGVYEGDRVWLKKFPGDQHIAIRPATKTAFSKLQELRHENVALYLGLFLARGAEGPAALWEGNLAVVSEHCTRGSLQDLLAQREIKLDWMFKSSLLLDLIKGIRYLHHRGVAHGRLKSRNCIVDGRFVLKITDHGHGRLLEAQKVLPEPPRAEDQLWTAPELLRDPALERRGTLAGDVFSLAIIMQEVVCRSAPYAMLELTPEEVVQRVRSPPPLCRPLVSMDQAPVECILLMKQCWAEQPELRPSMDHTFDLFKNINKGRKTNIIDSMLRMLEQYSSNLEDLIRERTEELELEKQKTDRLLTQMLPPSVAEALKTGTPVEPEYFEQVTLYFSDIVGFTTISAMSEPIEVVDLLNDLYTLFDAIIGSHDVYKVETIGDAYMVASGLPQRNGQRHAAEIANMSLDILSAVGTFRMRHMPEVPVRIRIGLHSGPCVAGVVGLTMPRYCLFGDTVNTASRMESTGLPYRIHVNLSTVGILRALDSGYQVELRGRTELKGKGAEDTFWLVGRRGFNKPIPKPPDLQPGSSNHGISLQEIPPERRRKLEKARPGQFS
T1 sequence (O95843 2-209 partner): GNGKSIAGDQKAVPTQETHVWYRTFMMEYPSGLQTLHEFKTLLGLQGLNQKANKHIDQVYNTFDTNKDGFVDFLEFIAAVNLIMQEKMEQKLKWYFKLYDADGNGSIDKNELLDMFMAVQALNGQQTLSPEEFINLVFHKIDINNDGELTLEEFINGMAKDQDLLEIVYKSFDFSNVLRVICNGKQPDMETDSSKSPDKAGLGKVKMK

B1: non-myristoylated wild-type human GCAP3 (guanylate cyclase-activating protein 3) (natural protein, UniProt O95843-1 1-209, looked up)
chain: MGNGKSIAGDQKAVPTQETHVWYRTFMMEYPSGLQTLHEFKTLLGLQGLNQKANKHIDQVYNTFDTNKDGFVDFLEFIAAVNLIMQEKMEQKLKWYFKLYDADGNGSIDKNELLDMFMAVQALNGQQTLSPEEFINLVFHKIDINNDGELTLEEFINGMAKDQDLLEIVYKSFDFSNVLRVICNGKQPDMETDSSKSPDKAGLGKVKMK
notes: Cloned into a plasmid named pET11-E6S; also called nmWT; nmWT GCAP3
B2: myristoylated wild-type human GCAP3 (guanylate cyclase-activating protein 3) (natural protein, UniProt O95843-1 1-209, looked up)
chain: MGNGKSIAGDQKAVPTQETHVWYRTFMMEYPSGLQTLHEFKTLLGLQGLNQKANKHIDQVYNTFDTNKDGFVDFLEFIAAVNLIMQEKMEQKLKWYFKLYDADGNGSIDKNELLDMFMAVQALNGQQTLSPEEFINLVFHKIDINNDGELTLEEFINGMAKDQDLLEIVYKSFDFSNVLRVICNGKQPDMETDSSKSPDKAGLGKVKMK
modifications: N-terminal myristoylation (degree of myristoylation 58.35%)
notes: Cloned into a plasmid named pET11-E6S; The sample is a mix of about 58% myristoylated and the rest non-myristoylated protein; also called mWT; mWT GCAP3
B3: non-myristoylated D101H variant of human GCAP3 (natural protein, UniProt O95843-1 1-209, looked up)
chain: MGNGKSIAGDQKAVPTQETHVWYRTFMMEYPSGLQTLHEFKTLLGLQGLNQKANKHIDQVYNTFDTNKDGFVDFLEFIAAVNLIMQEKMEQKLKWYFKLYHADGNGSIDKNELLDMFMAVQALNGQQTLSPEEFINLVFHKIDINNDGELTLEEFINGMAKDQDLLEIVYKSFDFSNVLRVICNGKQPDMETDSSKSPDKAGLGKVKMK
notes: Variant found in a patient with retinitis pigmentosa; Cloned into a plasmid named pET11-E6S; also called nmD101H; nmD101H GCAP3

What was measured:
[1] = molecular target: T1, GC1 (GC-E, ROS-GC1, RetGC1); test: cGMP production by reversed-phase HPLC; assay type: biochemical; conditions: GC1 membranes, 1 mM free Mg2+, low (<19 nM) or high (~30 µM) Ca2+, pH 7.4; basal and with mGCAP3 or mGCAP1
[2] = molecular target: the molecule itself; test: SEC; analytical SEC, Superose 12 10/300GL, ~40 µM protein loaded, 20 mM Tris-HCl pH 7.5, 150 mM KCl, 1 mM DTT, 500 µM EGTA (apo), 25 °C; apparent MM from a calibration curve
[3] = molecular target: the molecule itself; test: SEC; analytical SEC, Superose 12 10/300GL, ~40 µM protein loaded, 20 mM Tris-HCl pH 7.5, 150 mM KCl, 1 mM DTT, 1 mM Mg2+ and 500 µM Ca2+, 25 °C; apparent MM from a calibration curve

Row | Molecule | stoichiometry N [2] | also measured
1 | Nc1nc2c(ncn2[C@@H]2O[C@@H]3COP(=O)(O)O[C@H]3[C@H]2O)c(=O)[nH]1 [cGMP] |  | cGMP production by reversed-phase HPLC [1]: The production of cGMP was analyzed by reversed phase HPLC
2 | B1 | 2 | 
3 | B2 | 2 | 
4 | B3 |  | stoichiometry N [3]: 2
